Results published in the nanobody polyreactivity screen of Harvey et al. (2022).

Test: yeast display, Sf9 membrane polyspecificity reagent, FACS + sequencing; frameworks hold sequencing errors
Method in brief: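 Galactose induction of a Saccharomyces cerevisiae BJ5465 synthetic nanobody display library ran 36–48 hours. The cells were then stained for 1 hour at 4 °C with 10% biotinylated, detergent-solubilized Sf9 membrane reagent, pulled down on streptavidin microbeads and FACS-sorted into low and high (top ~1%) gates on expression and reagent-binding fluorescence. Labels for polyreactivity follow the gate of origin.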

Sequence	polyreactivity (PSR sort gate)
QVQLVESGGGLVQAGGSLRLSCAASGMGWYRQAPGKERELVARISGGVSTNYADSVKGRFTISRDNAKNTVYLQMNSLKPEDTAVYYCAADPLDTYDYWGQGTQVTVSS	low polyreactivity
HVQLVESGGGLVQAGGSLRLSCAASGRIFGRNAMGWYRQAPGKERELVAAISSGGSTYYADSVKGRLTISRDNAKNTVYLQMNSLKPEDTAVYYFAVRGSYYNGGRAFESWGQGTQVTVSS	high polyreactivity
QVQLVESGGGLVQAGGSLRLSCAASGFTFVINDMGWYRQAPGKERELVADITSGGDTYYADSVKGRFTISRDNAKNTVYLQMNSLKAEDTAVYYCAADIYPDWIYLLYGYWGQGTQVTVSS	low polyreactivity
QVQLVESGGGLVQAGGSLRLSCAASGSTFFYYTMGWYIQAPGKERELVADITRGGGTTYYADSVKGRFTISRDNAKNTVYLQMNSLKPEDTAVYYCNAPYPNARYWTGWGYYYWGQGTQVTVSS	high polyreactivity
QVQLVESGGGLVQAGGSLRLSCAASGNTFAFNAMGWYRQATGKEREFVAAISYSGVSTYYADSVKGRFTISRDNAKNTVYLQMNSLKPEDTAVYYCAARYGWYKYWYDYWGQGTQVTVSS	high polyreactivity
QVQLVESGGGLVQAGGSLRLSCAASGRTCFPYAMGWYRQAPGKERELVDAISSGGRTNYADSVKGRFTISRDNAKNTVYLQMNSLKPEDTAVYYCAARGYLRLYSYDYWGQGTQVTVSS	high polyreactivity
QVQLVESGGGLVQAGGSLRLSSAASGGILPIYAMGWYRQAPGKERELVATITGSGGGTYADSVKGRFTISRDNAKNTVYLQMNSLKPEDTAVYYCNADLGPVGHIDGYSYYDYDYWGQGTQVTVSS	low polyreactivity
QVQLVESGAGLVHAGGSLRLSCAASGRIFGINAMGWYRQAPGKERELVAAINWSGGSTYYADSVKGRFTISRDNAKNTVYLQMNSVKPEDTAVYYCAAQKYKRVGYWGQGTQVTVSS	high polyreactivity
QVQLVESGGGLVQAGGSLRLSCAASGRIINYNARGWYRQAPGKERELVAAISSSGGSTYYADSVKGRFTISRDNAKNTVYLQMNSLKPEDTAVYYCNALGTTEYWSRDDYWGQGTQVTVSS	low polyreactivity
QVQLVESGGGLVQAGGSLRLSCAASGGIVDSNAMGWYRQAPGKERELVAAISDSGGSTYYADSVKGRFTISRDNAKNTVYLQMNSLKPEDTAVYYCAADSDYHFVNYRFGMDYWGQGTQVTVSS	low polyreactivity
QVQLQESGDGLLQAVGSLRLSCAASGYISGYYYMGWYRQAPGKERELVAGIDAFGSSTNYADCVKGRFTISRDNGKNTVYLQMNSLKPEDTAVYYCAARPDGDRLFSYWGQGTQVTVSS	low polyreactivity
HVQLVESGGGLVQAGGSLRLSCAASGRIFVVYTMGWYRQAPGKERELVASIRGSGDSTNYADSVKGRFTLSRDNAKNTVYLQMNRLKPEDTAVYYCAADLPWSRRYSYRYGYWGQGTQVTVSS	low polyreactivity
QVQLVESGGGLVQAGGSLRLSCATYAMGWSRQAPGKERELVASIRSGSTYYADSVKGRFTISRDNAKNTVYLQMNSLKPEDTAVYYCAAYEIYYEFDSWGQGTQVTVSS	low polyreactivity
QVQLVESGGGLVQAGGSLRLSCAASGSTFGSNAMGWYRPAPGKERELVAAITYSGGRTYYADSVKGRFTISRDNAKNTVYLQMNSLKPEDTAVYYCAATFGFFYYQYDYWGQGTQVTVSS	low polyreactivity
QVQLVESGGGLVQAGGSLRLSCAASGYTFYSNAMGSYRQAPGKERELVASIRSRGRSTYYADSVKGRFTISRDNAKNTVYFQMNSLKPEDTAVYYCAALPNTPAVYAYDYWGQGTQVTVSS	low polyreactivity
QVQLVESWGGLVQAGGSLRLICAASGRIFYPYAMGWYRQAPGKERELVASITSGGGSYYADSVKGRFTISRDNAKNTVYLQMNSLKPEDTAVYYCAAPYITPYGTYVFSSVYWGQGTQVTVSS	low polyreactivity
QVQLVESGGGVVQAGGSLRLSCAASGFTFVRYTMGWYRQAPGKERELVAAITKRGGSTYYADSVKGRFTISRDNAKNTVYLQMNSLKPEDTAVYYCAAAVGNTDREYDYWGQGTQVTVSS	low polyreactivity
QVQLVESGGGLVQAGGSLRLSCAASGRTFSYYAMGWSRQAPGKERELVAAMSWNGGSTYYADSVKGRFTISRDNAKNTVYFQMNSLKPEDTAVYYGAAAFYYYGDYDYWGQGTQVTVSS	low polyreactivity
QVQLVESGGGLVQAGGSLRLSCAASGIIYYLYAMGWYRHAPGKERELVATISRRGGSTYYADSVKGRFTISRDNAKNTVYLQMNSLKPEDTAVYYCATGHYSVGRSFSSGSYEYWGQGTQVTVSS	high polyreactivity
QVQLVESGGGLVQAGGSLRLSCAASGSTFHLYTMGWSRQAPGKERELVAGISRRGGTTYYADSVKGRFTISRDNAKNTVYLQMNSLKPEDTAVYYCAAVYRTYGIGPNNYWGQGTQVTVSS	high polyreactivity
QVQRVESGGGLVQAGGSLRLSCAASGFTFESYAMGWYRQAHGKERELVAAITWDGGSTYYADSVKGRFTISRDNAKNTVYLQMNSLKPEDTAVYDCAADFGTISIDVYSWMDYWGQGTQVTGSS	low polyreactivity
QVQLVESGGGLVQAGGSLRLSCAASGSTFWLYAMGRYRPAPGKERELVASISSRGGSTYYADSVKGRFTISRDNAKNTVYLQMNSLKPEDTAVYYCAAKDIRYDDDYWGQGTQVTVSS	low polyreactivity

Sequence	polyreactivity (PSR sort gate)
QVQLVESGGGLVQAGGSLRLSCAASGYILYANAMGWYRQAPGKERELVASITFGDDSTYYADSVKGRFTISRDNAKNTVYLQMNSLKPEDTAVYYCNADHKVEVEDDYWGQGTQVTVSS	low polyreactivity
QVQLVESGGGLVQAGGSLRLSCAASGRTFSVYAMGWYRQAPGKERELVARIRSGGSTYYADSVKGRFTISRDNAKNTVYLQMNRLKPEDTAVYYCATQHYGPSSNARGVYRYYYWGHGTQVTVSS	high polyreactivity
QVQLVETGGGLVQAGGSLRLSCAASGSIFHYYAKGWYRQAPGKERELVAAISWSGVTTYYADSVKGRFTISRDNAKNTVYLQMNSLKPEDTAVYYCAADSWRYPYYYWGQGTQVNVSS	high polyreactivity
QVQLVESGAGLVQAGASLRLSCAASGRIFPWNAMGWSRQEPGKERELVAAISFSAGRTYYADSVKGRFTISRDNAKNTVYLQMNSLKPEDTAVYYCNARIGSRWVWTGIICYEYWGKGTQVTVSS	low polyreactivity
QVQLEDSGGGLVQAGGSLRLSCAASGRIFGYNAMGWYRQAPGKERELVAAITTSGGSTYYADSVKGRFTISRDNAKNTVYLQMNSLKPEDTAVYYCARDSLQVFYPYASDDYWGQGTQVTVSS	low polyreactivity
QVQLVESGGGLVQAGGSLRLSCAASGFILRYYAMGWYRQAPGKERELVAAITRGGSTYDADSVKGRFTISRDNAKNTVYLQMNSLKPEDTAVYYFDRRVGYKFSYDYWGQGTQVTVSS	high polyreactivity
QVQLVESGGRLVQAGGSLRLSCAASGSTFYFYAMGWYRQEPGKERELVAAISFTDTSTYYADSVKARFTISRDNAKNNVYLQMNSLKPEDTAVYYCAADSDYWGQGTQVTVSS	high polyreactivity
QVQLVESGGGLVQAGGSLRLSCAASGSTLSGYVMGWYRQAPGKERELVAGISQSGASTYYADSVKGRFTISRDNAKNTVYLQMNSLKPEDTAVYYCAAVARYLLKYRRYGYWGQGTQVTVSS	high polyreactivity
QVQLVESGGGLVQAGGSLRLSCAASGSTVKRNAMGWYRQAPGKERELVAAITQSGGSTYYADSVKGRFTISRHNAKNTVYLQMNSLKPEDTAVYYCAASDFRGRRYDYWGQGTQVTVSS	high polyreactivity
QVQLVESGGALLQAGGSLRLSCAASGRTFGYNAMGWYRQAPGKEREMVAAITYSGGRTSYADSVKGRFTISRDNAKNTVYLQMNSLKPEDTAVYYCAAQTRYYSGYNYWGQATQVTVSS	high polyreactivity
QVQLVESGGCLVQAGGSLRLSCAASGIIFYRYAMGWYRQAPGKERELVAAITYSGGRTYYADSVKARFTISRDNAKNTVYLQMNSLKTEDTAVSDCAAAGRFGDYWGQGTQVTVSS	high polyreactivity
QVQLVESGGGLVQAGGSLRLSCAASGFIFATNPMGWYRQAPGKERELVAASSTYYADSVKGRFTISRDNAKNTVYLQMNSLKPEDTAVYYCNADRDSYIGFVDWAGEYWGQGTQVTVSS	low polyreactivity
QVQLVESGGGLVQAGASLRLSCAASGRTSYRYAMGWNRQAPGKERELVAAISFGGGSTYYADSVKGRFPISRDNAKNTVYLQMNSLKPEDTAFYYCATDRVKYRNIYTDTGFDYWGQGTQVTVSS	high polyreactivity
QVHLVESGGGLVQAGGSLRLSCAASGFIFNVYAMGWYRQAPGKERELVAAISFSGTSTYYADSVKGRFTISRDNAKNTVYLQMNSLKPEDTAVYYCAARYWSRDQWPRSLYYWGQGTQVTVSS	high polyreactivity
QVQLVESGGGLVQAGGSLRLSCAASGSIIRVNTMGWYRQAPGKERELVAGITSRGGSTYYADSVKGRFTISRDNAKNTVYLQMISLKPEDTAFYYCANRAYGTALYRGYGNWGQGTQVTVSS	low polyreactivity
QVQLVESGGGLVQAGGSLRLSCAASGFTFWKYAMGWYRQAPGKEREFVPAISWSGGNTYYADSVKGRFTISRDNAKNTVYLQMNSLKPEDTADYYCARRGRYYLYTDDYDYWGQGTQVTVSS	high polyreactivity
QVQLVESGGGLVQAGGSLRLSCAASGFIFYSYDMGWYRQAPGKERELVAAIDSRGVNTYYADSVKGRFTISRDNAKNTVYLQMNILKPEDTAVYYCNVDAITWWDWEDFDYWGQGTQVTVSS	low polyreactivity
QVQLVESGGGLVQAGGSLRLRCAASGYNIQHYAMGWYRQAPGKERELVAAITSGGSTTYADSVKGRFTISRDNAKNTVYLQMNSLKPEDTAVYYCKALRRARYTRKGYEYWGQGTQVTVSS	high polyreactivity
QVQLVESGGGLVQAGGSLRLSCAASGSTFNTYAMGWYRQAPGKERELVASIRLRGGSTYYADSVKGRFTISRDNAKNTVYLQMNSLKPEDTAVYYCAARTWPWVLGGTQDDYWGQGTQVTVSS	low polyreactivity
QVQLVESGGGLVQAGGSLRLSCAASGRIFGSNAMGWYRQAPGKERELVAAISWRGASTYYADSVKGRFTISRDNAKNTVYLQMNSLIPEDTAVYYCFLRGRATQWDFGYWGQGTQVTVSS	high polyreactivity
QVQLVESVGGLDQAGGRLRLSCAASGFTIRPYVRRAYRQAPGTERELVAGISTGGSTYYADSVKGRFTISRDNAQNTVYLQMNRLKPEDTAVYDCAKRGKQYRKMNYWGQGTQVTVSS	high polyreactivity
